Laboratory results: US20230250154A1 (CYTONICS, published 2023)

T1: ADAMTS4 (human, UniProt O75173 213-685, limits assumed)
T1 sequence (looked up): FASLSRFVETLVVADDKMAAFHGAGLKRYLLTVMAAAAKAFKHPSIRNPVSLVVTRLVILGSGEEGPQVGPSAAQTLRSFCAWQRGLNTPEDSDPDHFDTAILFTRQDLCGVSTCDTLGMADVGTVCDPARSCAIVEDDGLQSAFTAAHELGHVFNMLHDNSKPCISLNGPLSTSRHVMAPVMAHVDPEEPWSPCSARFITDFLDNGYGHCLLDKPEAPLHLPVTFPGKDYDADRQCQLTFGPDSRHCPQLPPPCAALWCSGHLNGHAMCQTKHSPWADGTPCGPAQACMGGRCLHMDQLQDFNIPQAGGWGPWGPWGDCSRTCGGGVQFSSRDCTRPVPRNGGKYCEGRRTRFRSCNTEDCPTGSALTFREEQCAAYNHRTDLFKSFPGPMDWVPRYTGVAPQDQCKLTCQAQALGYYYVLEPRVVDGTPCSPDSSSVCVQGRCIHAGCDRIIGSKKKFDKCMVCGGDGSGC

T2: MMP2 (human, UniProt P08253 110-660, limits assumed)
T2 sequence (looked up): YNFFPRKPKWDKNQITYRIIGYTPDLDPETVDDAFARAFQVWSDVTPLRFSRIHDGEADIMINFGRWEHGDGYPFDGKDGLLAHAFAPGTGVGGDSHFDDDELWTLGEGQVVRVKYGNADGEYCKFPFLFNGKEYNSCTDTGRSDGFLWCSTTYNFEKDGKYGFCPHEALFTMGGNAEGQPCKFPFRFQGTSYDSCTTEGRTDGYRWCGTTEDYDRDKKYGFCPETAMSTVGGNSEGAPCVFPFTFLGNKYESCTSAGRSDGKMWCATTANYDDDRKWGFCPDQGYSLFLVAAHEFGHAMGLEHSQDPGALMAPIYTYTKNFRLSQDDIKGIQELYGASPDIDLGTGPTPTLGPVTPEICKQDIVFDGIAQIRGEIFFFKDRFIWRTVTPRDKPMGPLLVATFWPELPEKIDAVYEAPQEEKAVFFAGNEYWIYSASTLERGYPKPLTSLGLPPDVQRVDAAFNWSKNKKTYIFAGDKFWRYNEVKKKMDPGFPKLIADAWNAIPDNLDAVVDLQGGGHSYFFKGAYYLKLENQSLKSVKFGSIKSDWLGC

T3: MMP1 (human, UniProt P03956 100-469, limits assumed)
T3 sequence (looked up): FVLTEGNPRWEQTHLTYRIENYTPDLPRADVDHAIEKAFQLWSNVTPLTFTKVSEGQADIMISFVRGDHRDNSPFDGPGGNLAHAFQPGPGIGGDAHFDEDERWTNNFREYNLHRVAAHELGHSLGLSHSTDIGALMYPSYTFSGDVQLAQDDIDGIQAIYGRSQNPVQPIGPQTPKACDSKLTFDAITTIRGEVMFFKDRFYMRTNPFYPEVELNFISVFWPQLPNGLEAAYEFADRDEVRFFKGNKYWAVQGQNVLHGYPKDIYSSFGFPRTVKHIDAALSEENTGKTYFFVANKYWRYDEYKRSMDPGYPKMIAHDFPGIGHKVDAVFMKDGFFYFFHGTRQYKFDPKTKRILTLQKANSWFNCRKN

T4: ADAMTS5 (human, UniProt Q9UNA0 262-622, limits assumed)
T4 sequence (looked up): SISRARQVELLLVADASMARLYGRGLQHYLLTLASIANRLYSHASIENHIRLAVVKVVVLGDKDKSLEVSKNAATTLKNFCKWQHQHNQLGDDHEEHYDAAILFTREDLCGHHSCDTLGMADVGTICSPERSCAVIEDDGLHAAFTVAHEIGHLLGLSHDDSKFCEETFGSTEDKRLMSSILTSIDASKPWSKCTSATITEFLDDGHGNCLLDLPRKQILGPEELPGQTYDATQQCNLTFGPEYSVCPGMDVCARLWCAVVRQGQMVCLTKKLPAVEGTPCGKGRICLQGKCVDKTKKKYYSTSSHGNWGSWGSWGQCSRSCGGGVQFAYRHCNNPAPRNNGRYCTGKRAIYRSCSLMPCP

T5: Cathepsin G (UniProt P08311 21-244)
T5 sequence (looked up): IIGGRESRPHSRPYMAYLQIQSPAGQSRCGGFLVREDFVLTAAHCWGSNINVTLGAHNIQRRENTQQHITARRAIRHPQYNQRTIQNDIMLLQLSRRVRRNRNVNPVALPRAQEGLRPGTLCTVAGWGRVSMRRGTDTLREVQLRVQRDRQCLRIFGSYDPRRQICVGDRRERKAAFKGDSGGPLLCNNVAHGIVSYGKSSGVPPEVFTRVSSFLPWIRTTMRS


What was measured:
Experiment in all cases: cell-based or functional assay
[1] = target: T1, ADAMTS4
[2] = target: MMP9 (human, UniProt P14780 107-707, limits assumed)
[3] = target: T2, MMP2
[4] = target: MMP12 (human, UniProt P39900 106-470, limits assumed)
[5] = target: MMP13 (human, UniProt P45452 104-471, limits assumed)
[6] = target: T3, MMP1
[7] = target: MMP3 (human, UniProt P08254 100-477, limits assumed)
[8] = target: MMP8 (human, UniProt P22894 101-467, limits assumed)
[9] = target: T4, ADAMTS5
[10] = target: Elastase
[11] = target: T5, Cathepsin G
[12] = target: chymotrypsin
[13] = target: bovine trypsin (bovine, UniProt P00760 24-246)
Sequence of bovine trypsin (P00760 24-246): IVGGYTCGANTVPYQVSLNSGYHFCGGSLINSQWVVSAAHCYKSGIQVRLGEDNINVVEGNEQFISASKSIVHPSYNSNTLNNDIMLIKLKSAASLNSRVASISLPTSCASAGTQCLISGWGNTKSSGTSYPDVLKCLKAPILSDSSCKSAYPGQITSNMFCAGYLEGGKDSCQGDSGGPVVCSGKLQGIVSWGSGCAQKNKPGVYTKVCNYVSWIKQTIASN

Sequence of MMP8 (P22894 101-467 limits assumed): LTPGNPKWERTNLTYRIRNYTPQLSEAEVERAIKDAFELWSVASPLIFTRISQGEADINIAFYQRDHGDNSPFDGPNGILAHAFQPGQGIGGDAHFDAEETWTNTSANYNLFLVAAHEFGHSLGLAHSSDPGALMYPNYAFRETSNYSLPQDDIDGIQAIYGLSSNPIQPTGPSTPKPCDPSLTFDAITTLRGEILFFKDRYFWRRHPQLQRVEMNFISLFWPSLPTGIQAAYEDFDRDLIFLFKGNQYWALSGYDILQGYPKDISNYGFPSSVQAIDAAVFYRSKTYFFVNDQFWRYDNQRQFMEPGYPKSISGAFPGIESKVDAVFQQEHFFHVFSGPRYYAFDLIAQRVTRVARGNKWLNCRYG
Sequence of MMP3 (P08254 100-477 limits assumed): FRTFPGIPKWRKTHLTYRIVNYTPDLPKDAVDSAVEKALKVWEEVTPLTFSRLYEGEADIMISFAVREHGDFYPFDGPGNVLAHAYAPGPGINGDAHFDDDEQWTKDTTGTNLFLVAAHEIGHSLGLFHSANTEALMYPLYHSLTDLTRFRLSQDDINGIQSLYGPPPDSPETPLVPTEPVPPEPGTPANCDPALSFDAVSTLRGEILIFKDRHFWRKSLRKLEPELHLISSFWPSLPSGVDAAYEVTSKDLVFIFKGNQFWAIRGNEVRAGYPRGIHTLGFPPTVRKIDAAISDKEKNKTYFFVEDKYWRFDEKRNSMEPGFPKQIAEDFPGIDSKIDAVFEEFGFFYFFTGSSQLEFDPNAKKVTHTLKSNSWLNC
Sequence of MMP9 (P14780 107-707 limits assumed): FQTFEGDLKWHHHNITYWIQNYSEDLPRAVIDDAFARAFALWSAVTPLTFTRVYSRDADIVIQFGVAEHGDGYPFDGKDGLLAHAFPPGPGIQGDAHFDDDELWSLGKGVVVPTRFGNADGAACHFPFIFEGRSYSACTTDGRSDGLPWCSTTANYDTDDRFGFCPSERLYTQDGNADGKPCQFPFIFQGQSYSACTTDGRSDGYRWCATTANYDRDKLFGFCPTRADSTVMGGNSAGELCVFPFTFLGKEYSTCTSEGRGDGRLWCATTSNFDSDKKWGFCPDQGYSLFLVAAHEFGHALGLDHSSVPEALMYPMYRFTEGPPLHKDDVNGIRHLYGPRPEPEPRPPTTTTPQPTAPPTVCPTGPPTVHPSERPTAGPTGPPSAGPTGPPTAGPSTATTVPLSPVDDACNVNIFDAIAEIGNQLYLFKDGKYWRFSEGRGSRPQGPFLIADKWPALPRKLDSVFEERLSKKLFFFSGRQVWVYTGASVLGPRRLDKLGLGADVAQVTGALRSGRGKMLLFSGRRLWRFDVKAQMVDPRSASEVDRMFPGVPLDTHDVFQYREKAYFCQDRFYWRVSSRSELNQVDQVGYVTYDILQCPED
Sequence of MMP12 (P39900 106-470 limits assumed): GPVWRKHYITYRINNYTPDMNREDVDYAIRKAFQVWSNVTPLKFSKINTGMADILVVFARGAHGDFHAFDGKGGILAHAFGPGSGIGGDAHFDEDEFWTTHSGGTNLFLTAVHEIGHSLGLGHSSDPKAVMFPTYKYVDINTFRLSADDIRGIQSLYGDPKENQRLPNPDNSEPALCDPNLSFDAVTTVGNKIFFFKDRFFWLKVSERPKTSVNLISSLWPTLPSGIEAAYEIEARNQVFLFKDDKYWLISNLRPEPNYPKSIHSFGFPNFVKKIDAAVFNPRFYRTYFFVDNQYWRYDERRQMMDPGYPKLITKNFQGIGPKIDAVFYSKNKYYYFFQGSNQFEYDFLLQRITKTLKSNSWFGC

Row | Binder | Protease Inhibition (% of WT) [1] | Protease Inhibition (% of WT) [2] | Protease Inhibition (% of WT) [3] | Protease Inhibition (% of WT) [4] | Protease Inhibition (% of WT) [5] | Protease Inhibition (% of WT) [6] | Protease Inhibition (% of WT) [7] | Protease Inhibition (% of WT) [8] | Protease Inhibition (% of WT) [9] | Protease Inhibition (% of WT) [10] | Protease Inhibition (% of WT) [11] | Protease Inhibition (% of WT) [12] | Protease Inhibition (% of WT) [13]
1 | Variant A2M, bait region SEQ ID NO 126 (other) SVSGKPQYMVLVPSLLHTETTEKGCVLLSYLNETVTVSASLESVRGNRSLFTDLEAENDVLHCVAFAVPKSSSNEEVMFLTVQVKGPTQEFKKRTTVMVKNEDSLVFVQTDKSIYKPGQTVKFRVVSMDENFHPLNELIPLVYIQDPKGNRIAQWQSFQLEGGLKQFSFPLSSEPFQGSYKVVVQKKSGGRTEHPFTVEEFVLPKFEVQVTVPKIITILEEEMNVSVCGLYTYGKPVPGHVTVSICRKYSDASDCHGEDSQAFCEKFSGQLNSHGCFYQQVKTKVFQLKRKEYEMKLHTEAQIQEEGTVVELTGRQSSEITRTITKLSFVKVDSHFRQGIPFFGQVRLVDGKGVPIPNKVIFIRGNEANYYSNATTDEHGLVQFSINTTNVMGTSLTVRVNYKDRSPCYGYQWVSEEHEEAHHTAYLVFSPSKSFVHLEPMSHELPCGHTQTVQAHYILNGGTLLGLKKLSFYYLIMAKGGIVRTGTHGLLVKQEDMKGHFSISIPVKSDIAPVARLLIYAVLPTGDVIGDSAKYDVENCLANKVDLSFSPSQSLPASHAHLRVTAAPQSVCALRAVDQSVLLMKPDAELSASSVYNLLPEKDLTGFPGPLNDQDDEDCINRHNVYINGITYTPVSSTNEKDMYSFLEDMGLKAFTNSKIRKPKMCPQLEQYEMHGPEGEGEGEGIPENFFGVSEDLVVQISELEGRGSVEEPHTKLRKYFPETWIWDLVVVNSAGVAEVGVTVPDTITEWKAGAFCLSEDAGLGISSTASLRAFQPFFVELTMPYSVIRGEAFTLKATVLNYLPKCIRVSVQLEASPAFLAVPVEKEQAPHCICANGRQTVSWAVTPKSLGNVNFTVSAEALESQELCGTEVPSVPEHGRKDTVIKPLLVEPEGLEKETTFNSLLCPSGGEVSEELSLKLPPNVVEESARASVSVLGDILGSAMQNTQNLLQMPYGCGEQNMVLFAPNIYVLDYLNETQQLTPEIKSKAIGYLNTGYQRQLNYKHYDGSYSTFGERYGRNQGNTWLTAFVLKTFAQARAYIFIDEAHITQALIWLSQRQKDNGCFRSSGSLLNNAIKGGVEDEVTLSAYITIALLEIPLTVTHPVVRNALFCLESAWKTAQEGDHGSHVYTKALLAYAFALAGNQDKRKEVLKSLNEEAVKKDNSVHWERPQKPKAPVGHFYEPQAPSAEVEMTSYVLLAYLTAQPAPTSEDLTSATNIVKWITKQQNAQGGFSSTQDTVVALHALSKYGAATFTRTGKAAQVTIQSSGTFSSKFQVDNNNRLLLQQVSLPELPGEYSMKVTGEGCVYLQTSLKYNILPEKEEFPFALGVQTLPQTCDEPKAHTSFQISLSVSYTGSRSASNMAIVDVKMVSGFIPLKPTVKMLERSNHVSRTEVSSNHVLIYLDKVSNQTLSLFFTVLQDVPVRDLKPAIVKVYDYYETDEFAIAEYNAPCSKDLGNADYKDDDDKGASHHHHHH | 115 % of WT | 500 % of WT | 61 % of WT | 132 % of WT | 117 % of WT | 379 % of WT | 130 % of WT | 163 % of WT | 480 % of WT | 105 % of WT | 311 % of WT | 50 % of WT | 86 % of WT
2 | Variant A2M, bait region SEQ ID NO 127 (other) SVSGKPQYMVLVPSLLHTETTEKGCVLLSYLNETVTVSASLESVRGNRSLFTDLEAENDVLHCVAFAVPKSSSNEEVMFLTVQVKGPTQEFKKRTTVMVKNEDSLVFVQTDKSIYKPGQTVKFRVVSMDENFHPLNELIPLVYIQDPKGNRIAQWQSFQLEGGLKQFSFPLSSEPFQGSYKVVVQKKSGGRTEHPFTVEEFVLPKFEVQVTVPKIITILEEEMNVSVCGLYTYGKPVPGHVTVSICRKYSDASDCHGEDSQAFCEKFSGQLNSHGCFYQQVKTKVFQLKRKEYEMKLHTEAQIQEEGTVVELTGRQSSEITRTITKLSFVKVDSHFRQGIPFFGQVRLVDGKGVPIPNKVIFIRGNEANYYSNATTDEHGLVQFSINTTNVMGTSLTVRVNYKDRSPCYGYQWVSEEHEEAHHTAYLVFSPSKSFVHLEPMSHELPCGHTQTVQAHYILNGGTLLGLKKLSFYYLIMAKGGIVRTGTHGLLVKQEDMKGHFSISIPVKSDIAPVARLLIYAVLPTGDVIGDSAKYDVENCLANKVDLSFSPSQSLPASHAHLRVTAAPQSVCALRAVDQSVLLMKPDAELSASSVYNLLPEKDLTGFPGPLNDQDDEDCINRHNVYINGITYTPVSSTNEKDMYSFLEDMGLKAFTNSKIRKPKMCPQLEQYEMHGPIPENFFGVSELEGRGSEAIPMSIPTEGEGEGEGVEEPHTKLRKYFPETWIWDLVVVNSAGVAEVGVTVPDTITEWKAGAFCLSEDAGLGISSTASLRAFQPFFVELTMPYSVIRGEAFTLKATVLNYLPKCIRVSVQLEASPAFLAVPVEKEQAPHCICANGRQTVSWAVTPKSLGNVNFTVSAEALESQELCGTEVPSVPEHGRKDTVIKPLLVEPEGLEKETTFNSLLCPSGGEVSEELSLKLPPNVVEESARASVSVLGDILGSAMQNTQNLLQMPYGCGEQNMVLFAPNIYVLDYLNETQQLTPEIKSKAIGYLNTGYQRQLNYKHYDGSYSTFGERYGRNQGNTWLTAFVLKTFAQARAYIFIDEAHITQALIWLSQRQKDNGCFRSSGSLLNNAIKGGVEDEVTLSAYITIALLEIPLTVTHPVVRNALFCLESAWKTAQEGDHGSHVYTKALLAYAFALAGNQDKRKEVLKSLNEEAVKKDNSVHWERPQKPKAPVGHFYEPQAPSAEVEMTSYVLLAYLTAQPAPTSEDLTSATNIVKWITKQQNAQGGFSSTQDTVVALHALSKYGAATFTRTGKAAQVTIQSSGTFSSKFQVDNNNRLLLQQVSLPELPGEYSMKVTGEGCVYLQTSLKYNILPEKEEFPFALGVQTLPQTCDEPKAHTSFQISLSVSYTGSRSASNMAIVDVKMVSGFIPLKPTVKMLERSNHVSRTEVSSNHVLIYLDKVSNQTLSLFFTVLQDVPVRDLKPAIVKVYDYYETDEFAIAEYNAPCSKDLGNADYKDDDDKGASHHHHHH | 82 % of WT | 500 % of WT | 118 % of WT | 170 % of WT | 131 % of WT | 327 % of WT | 130 % of WT | 210 % of WT | 205 % of WT | 102 % of WT | 324 % of WT | 25 % of WT | 84 % of WT
